US20220162337A1 (NATIONAL RESEARCH COUNCIL OF CANADA, published 2022)
Numbering of substitutions follows the chain as printed. Numbers in names are those of the source. Blank lines part the entries; values can stand above or below the binder they belong to.

Tests used:
[1] = biological target: T1, intact Her2 expressed at the cell surface (human, UniProt P04626 23-1255); assay: flow cytometry on SKOV3 cells, apparent KD, pH 5.2; FSA, SKOV3 cells, pH 5.2
T1 construct: whole, on cells; also called Her2 on SKOV3 cells; Her2 on JIMT-1 cells
Experimental: (§1) The cells were washed twice in 200 μL binding buffer, followed by addition of 120 μL 1.0% propidium iodide and samples were then transferred to Multiscreen 96-well plates (60 μm Nylon Mesh, Millipore, Etobicoke, ON) and filtered by centrifugation. The filtrate samples were collected from the Multiscreen receiver plate and transferred to a new V-bottom polypropylene plate at 4° C. Flow cytometric analysis was performed on a BD LSR-Fortessa instrument (BD Biosciences, San Jose, Calif.). […] Median fluorescence intensity (MFI) was reported by analyzing 3000 alive cells per sample with the gating strategy: all cells/singlets/alive cells (PI negative) using BD FACSDiva software (BD Biosciences).
(§2) The designed variants were then reformatted into human IgG1/k FSAs and re-tested on the high-density Her2 cells.

[2] = biological target: T1, intact Her2 expressed at the cell …; assay: flow cytometry on SKOV3 cells, apparent KD, pH 5.6; FSA, SKOV3 cells, pH 5.6
Experimental: as §1, §2

[3] = biological target: T1, intact Her2 expressed at the cell …; assay: flow cytometry on SKOV3 cells, apparent KD, pH 6.8; FSA, SKOV3 cells, pH 6.8
Experimental: as §1, §2

[4] = biological target: T1, intact Her2 expressed at the cell …; assay: flow cytometry on SKOV3 cells, pH 6.8 vs pH 7.3
Experimental: as §1, §2

[5] = biological target: T1, intact Her2 expressed at the cell …; assay: flow cytometry on SKOV3 cells, pH 6.0 vs pH 7.3
Experimental: as §1, §2

[6] = biological target: T1, intact Her2 expressed at the cell …; assay: flow cytometry on SKOV3 cells, apparent KD, pH 6.4; FSA, SKOV3 cells, pH 6.4
Experimental: as §1, §2

[7] = biological target: T1, intact Her2 expressed at the cell …; assay: flow cytometry (FACS) on SKOV3 cells, full-size antibody, pH 6.0
Experimental: (§3) Cells in T-75 flasks were washed twice with D-PBS and then dissociated using Cell Dissociation buffer (Sigma, C5914) at 37° C. […] The cells were then washed twice by centrifugation at 233×g, removal of supernatant by aspiration and resuspending the cells in 200 μL binding buffer at 4° C. Detection reagent, either anti-human Fab or Fc AlexaFluor488-(Fab′)² (Jackson Immunochemicals, West Groove, Pa.), was then added at a final concentration of 10 μg/mL and samples were incubated at 4° C., 1 h. The cells were washed twice in 200 μL binding buffer, followed by addition of 120 μL 1.0% propidium iodide and samples were then transferred to Multiscreen 96-well plates (60 μm Nylon Mesh, Millipore, Etobicoke, ON) and filtered by centrifugation. The filtrate samples were collected from the Multiscreen receiver plate and transferred to a new V-bottom polypropylene plate at 4° C. Flow cytometric analysis was performed on a BD LSR-Fortessa instrument (BD Biosciences, San Jose, Calif.). […] Median fluorescence intensity (MFI) was reported by analyzing 3000 alive cells per sample with the gating strategy: all cells/singlets/alive cells (PI negative) using BD FACSDiva software (BD Biosciences).
as §2

[8] = biological target: T1, intact Her2 expressed at the cell …; assay: flow cytometry (FACS) on SKOV3 cells, full-size antibody, pH 5.2
Experimental: as §3, §2

[9] = biological target: T1, intact Her2 expressed at the cell …; assay: flow cytometry on SKOV3 cells, apparent KD, pH 7.3 (Bmax not reached)
Experimental: as §1, §2

[10] = biological target: T1, intact Her2 expressed at the cell …; assay: flow cytometry on SKOV3 cells, apparent KD, pH 6.0; FSA, SKOV3 cells, pH 6.0
Experimental: as §1, §2

[11] = biological target: T1, intact Her2 expressed at the cell …; assay: flow cytometry (FACS) on SKOV3 cells, full-size antibody, pH 6.4
Experimental: as §3, §2

[12] = biological target: T2, Recombinant human Her2 extracellular domain (human, UniProt P04626 23-652); assay: SPR, Fab over immobilized Her2 ectodomain, pH 5.0, 25 C
T2 construct: extracellular domain; also called Her2 ectodomain; recombinant Her2 ectodomain
Experimental: (§4) Fab-Her2 interactions were analyzed using a Biacore™ T200 (GE Healthcare, Missisauga, ON) surface plasmon resonance instrument. […] Recombinant human Her2 extracellular domain (ThermoFisher Scientific, Burlington, ON) was immobilized onto a CM-5 sensorchip along with a mock-activated blank control surface for referencing. Her2 was diluted to 10 μg/mL in 10 mM NaOAc immobilization buffer pH 4.5 (Biacore) and immobilized to approximately 200 RUs using the Biacore control software Immobilization Wizard with standard NHS/EDC amine coupling. […] Fab samples were injected at 100 4/min with a contact time of 90 s and a 1200-s dissociation using either pH 5.0 or 7.4 running buffer. Sensorgrams were double referenced to the mock-activated blank sensor surface and analyzed for kinetic determination using a 1:1 binding model in BiaEvaluation software v3.1 (GE Healthcare).

[13] = biological target: T2, Recombinant human Her2 extracellular …; assay: SPR, Fab over immobilized Her2 ectodomain, pH 7.4, 25 C
Experimental: as §4

[14] = biological target: T1, intact Her2 expressed at the cell …; assay: flow cytometry on SKOV3 cells, apparent KD, pH 5.2 (Bmax not reached)
[15] = biological target: T1, intact Her2 expressed at the cell …; assay: flow cytometry on SKOV3 cells, apparent KD, pH 7.3
[16] = biological target: T1, intact Her2 expressed at the cell …; assay: flow cytometry on SKOV3 cells, apparent KD, pH 6.4
[17] = biological target: T1, intact Her2 expressed at the cell …; assay: flow cytometry on SKOV3 cells, apparent KD, pH 6.0
[18] = biological target: T1, intact Her2 expressed at the cell …; assay: flow cytometry on SKOV3 cells, apparent KD, pH 7.3; remark: listed apart in the source
[19] = biological target: T1, intact Her2 expressed at the cell …; assay: flow cytometry on JIMT-1 cells (low Her2 density), full-size antibody, pH 7.3
[20] = biological target: T1, intact Her2 expressed at the cell …; assay: flow cytometry on SKOV3 cells, apparent KD, pH 5.2
[21] = biological target: T1, intact Her2 expressed at the cell …; assay: flow cytometry (FACS) on SKOV3 cells, full-size antibody, pH 7.3
[22] = biological target: T1, intact Her2 expressed at the cell …; assay: flow cytometry on SKOV3 cells, apparent KD, pH 5.6
[23] = biological target: T1, intact Her2 expressed at the cell …; assay: flow cytometry on JIMT-1 cells (low Her2 density), full-size antibody, pH 6.0
[24] = biological target: T1, intact Her2 expressed at the cell …; assay: flow cytometry on SKOV3 cells, apparent KD, pH 6.8
[25] = biological target: T1, intact Her2 expressed at the cell …; assay: cell-based or functional assay
[26] = biological target: T2, Recombinant human Her2 extracellular …; assay: SPR, acidic pH 5.0 vs physiological pH 7.4, relative to the parent bH1
Experimental: as §4

[27] = biological target: T2, Recombinant human Her2 extracellular …; assay: SPR, pH 5.0 vs pH 7.4
Experimental: as §4

[28] = biological target: T1, intact Her2 expressed at the cell …; assay: flow cytometry on SKOV3 cells, apparent KD, pH 5.2 (Bmax not reached); Fab, SKOV3 cells, pH 5.2 (acidic); approximate, Bmax not reached
Experimental: (§5) The cells were then washed twice by centrifugation at 233×g, removal of supernatant by aspiration and resuspending the cells in 200 μL binding buffer at 4° C. Detection reagent, either anti-human Fab or Fc AlexaFluor488-(Fab′)² (Jackson Immunochemicals, West Groove, Pa.), was then added at a final concentration of 10 μg/mL and samples were incubated at 4° C., 1 h. The cells were washed twice in 200 μL binding buffer, followed by addition of 120 μL 1.0% propidium iodide and samples were then transferred to Multiscreen 96-well plates (60 μm Nylon Mesh, Millipore, Etobicoke, ON) and filtered by centrifugation. The filtrate samples were collected from the Multiscreen receiver plate and transferred to a new V-bottom polypropylene plate at 4° C. Flow cytometric analysis was performed on a BD LSR-Fortessa instrument (BD Biosciences, San Jose, Calif.). […] Median fluorescence intensity (MFI) was reported by analyzing 3000 alive cells per sample with the gating strategy: all cells/singlets/alive cells (PI negative) using BD FACSDiva software (BD Biosciences).

[29] = biological target: T1, intact Her2 expressed at the cell …; assay: flow cytometry on SKOV3 cells, pH 5.2, against bH1-P5 and bH1-P5P7 Fabs
Experimental: as §5

B1: bH1-P5P7-FSA (antibody, human IgG1, kappa, V domains shown)
VH: not shown
VL: DIQMTQSPSSLSASVGDRVTITCRASQDIPHSISGYVAWYQQKPGKAPKLLIYWGSYLYSGVPSRFSGSGSGTDFTLTISSLQPEDFATYYCQQHYTTPPTFGQGTKVEIKR
notes: also called bH1-P5P7 full-size antibody
Kd [1]: 8.4 nM | Kd [2]: 9.5 nM | Kd [3]: 29.7 nM | fold pH-selectivity, pH 6.8 over pH 7.3 [4]: ~25 fold | fold pH-selectivity, pH 6.0 over pH 7.3 [5]: > 10 fold | Kd [6]: 16 nM | EC50 (read off the curve) [7]: ~10 nM | EC50 (read off the curve) [8]: ~8 nM | Kd [9]: ~716 nM | Kd [10]: 9.7 nM | EC50 (read off the curve) [11]: ~20 nM

B6: bH1-P6 (H-Y100aH) Fab (Fab, V domains shown)
VH: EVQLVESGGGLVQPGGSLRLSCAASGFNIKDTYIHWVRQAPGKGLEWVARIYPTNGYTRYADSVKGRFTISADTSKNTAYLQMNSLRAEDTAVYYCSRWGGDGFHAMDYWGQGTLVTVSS
VL: B1 VL with H31R
Kd [13]: 10 nM | koff [13]: 0.0048 s⁻¹ | kon [13]: 480000 M⁻¹ s⁻¹

B7: bH1-P5P8-FSA (antibody, human IgG1, kappa, V domains shown)
VH: not shown
VL: B1 VL with H31R, S32H
notes: also called bH1-P5P8 full-size antibody
Kd [1]: 12.3 nM | Kd [3]: 21.7 nM | internalization of FITC conjugated antibody into BT474 cells, pH 6.4 [25]: 2 fold over negative control | Kd [6]: 15.1 nM | EC50 (read off the curve) [7]: ~10 nM | EC50 (read off the curve) [8]: ~10 nM | Kd [9]: ~290 nM | EC50 (read off the curve) [11]: ~20 nM

B8: bH1-P5P7 (H-R58H,L-R30aH) Fab (Fab, V domains shown)
VH: not shown
VL: B1 VL
notes: also called bH1-P5P7-Fab
Kd [12]: 90 nM | koff [12]: 0.0057 s⁻¹ | kon [12]: 70000 M⁻¹ s⁻¹ | ΔΔΔGbinding [26]: -1.93 kcal/mol | Kd [13]: 530 nM | koff [13]: 0.021 s⁻¹ | kon [13]: 40000 M⁻¹ s⁻¹ | fold stronger binding at acidic pH than at physiological pH [27]: ~6 fold | Kd [28]: ~178 nM

B9: bH1-P5P8 (H-R58H,L-S30bH) Fab (Fab, V domains shown)
VH: not shown
VL: B1 VL with H31R, S32H
notes: also called bH1-P5P8-Fab; bH1-P5P8 Fab
Kd [12]: 50 nM | koff [12]: 0.0037 s⁻¹ | kon [12]: 90000 M⁻¹ s⁻¹ | ΔΔΔGbinding [26]: -1.91 kcal/mol | Kd [13]: 290 nM | koff [13]: 0.011 s⁻¹ | kon [13]: 40000 M⁻¹ s⁻¹ | fold stronger affinity than bH1-P5 and bH1-P5P7 [29]: ~2 fold | fold stronger binding at acidic pH than at physiological pH [27]: ~6 fold | Kd [28]: ~93 nM

The next lines start with the values.

Kd [12]: 13 nM | Kd [13]: 3 nM | Kd [14]: ~41 nM | Kd [15]: 21.3 nM
B2: parental bH1-Fab (Fab, V domains shown)
VH: not shown
VL: B1 VL with H31R

Kd [12]: 17 nM | Kd [13]: 5.7 nM
B3: bH1-P7 (L-R30aH) Fab (Fab, V domains shown)
VH: not shown
VL: B1 VL

Kd [16]: 2.9 nM | Kd [17]: 2.9 nM | Kd [18]: 4.1 nM | EC50 (read off the curve) [19]: ~2 nM | EC50 (read off the curve) [7]: ~3 nM | EC50 (read off the curve) [8]: ~3 nM | Kd [20]: 2.6 nM | EC50 (read off the curve) [21]: ~4 nM | EC50 (read off the curve) [11]: ~3 nM | Kd [22]: 1.5 nM | EC50 (read off the curve) [23]: ~2 nM | Kd [24]: 2 nM
B4: parental bH1-FSA (full-size human IgG1/k antibody) (antibody, V domains shown)
VH: not shown
VL: B1 VL with H31R

Kd [12]: 9.9 nM | Kd [13]: 3.4 nM
B5: bH1-P8 (L-S30bH) Fab (Fab, V domains shown)
VH: not shown
VL: B1 VL with H31R, S32H
